Measured values published in publication PMC12965811 (Nature chemical biology, 2025).
Substitutions are numbered along the chain they refer to. One block for each molecule: values may come before it.

Key:
[1] = biological target: full-length human cytoplasmic dynein 1 (wild type) (human) (UniProt Q14204); experiment: cryo-EM structure
[2] = biological target: full-length human cytoplasmic dynein 1 (wild type) (human) (UniProt Q14204); experiment: mass photometry
human Lis1 (wild type) = biological target: T1, human Lis1 (wild type) (human, UniProt P43034 1-410); experiment: mass photometry
T1 sequence: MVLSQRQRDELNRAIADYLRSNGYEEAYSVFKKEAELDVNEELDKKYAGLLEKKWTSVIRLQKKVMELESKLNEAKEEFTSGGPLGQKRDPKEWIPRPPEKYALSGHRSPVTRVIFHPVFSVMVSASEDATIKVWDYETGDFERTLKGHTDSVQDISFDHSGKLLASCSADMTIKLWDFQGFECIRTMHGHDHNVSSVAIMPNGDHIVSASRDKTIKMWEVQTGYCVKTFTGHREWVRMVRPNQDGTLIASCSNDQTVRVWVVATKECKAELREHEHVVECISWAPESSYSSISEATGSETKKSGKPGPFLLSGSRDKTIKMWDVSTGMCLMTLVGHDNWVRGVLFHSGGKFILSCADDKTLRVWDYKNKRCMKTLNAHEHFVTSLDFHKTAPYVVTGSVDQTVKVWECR

[3] = biological target: T2, Lis1^AAA6 (N203K, D205K and Q222A) (human, UniProt P43034 1-410, N203K | D205K | Q222A); experiment: mass photometry
T2 sequence (looked up): T1 sequence with N203K, D205K, Q222A

[4] = biological target: T3, Lis1^AAA5 (D192K, Y225A and C226D) (human, UniProt P43034 1-410, D192K | Y225A | C226D); experiment: mass photometry
T3 sequence (looked up): T1 sequence with D192K, Y225A, C226D

[5] = biological target: T4, Lis1^All (D192K, D205K, E300A and K303A) (human, UniProt P43034 1-410, D192K | D205K | E300A | K303A); experiment: mass photometry
T4 sequence (looked up): T1 sequence with D192K, D205K, E300A, K303A

- percent of autoinhibited dynein particles in the Phi^L–Lis1 conformation [1]: 57.3%
- stoichiometry N (Lis1 dimer per dynein) [1]: 1
- percent of 1:1 dynein:Lis1 complex (no Nde1, within 60 min) [2]: 37%
- percent of complex formation (with Nde1, within a minute) [2]: 69%
- stoichiometry N (Lis1 dimer per dynein dimer) [2]: 1
- stoichiometry N (Lis1 dimer per dynein) [2]: 1
Molecule: human Lis1 (wild type) (from UniProt P43034 1-410) (natural protein)

- binding result (human Lis1 (wild type)): binds
- binding result [3]: binds
- binding result [4]: binds
- binding result [5]: binds
B1: human Nde1 (N-terminal residues 1–190) (domain or fragment, UniProt Q9NXR1 1-190, looked up)
chain: MEDSGKTFSSEEEEANYWKDLAMTYKQRAENTQEELREFQEGSREYEAELETQLQQIETRNRDLLSENNRLRMELETIKEKFEVQHSEGYRQISALEDDLAQTKAIKDQLQKYIRELEQANDDLERAKRATIMSLEDFEQRLNQAIERNAFLESELDEKENLLESVQRLKDEARDLRQELAVQQKQEKPR
